Test results taken from patent US20150004129A1.
Each block holds one substance with its values, some of them ahead of it.

Legend:
[1] = target: Flag-CD40L (AA 116 to 261) (human) (UniProt P29965); assay: competitive ELISA; receptor/Fc coated, sCD40L at constant concentration, competitor titrated
[2] = target: Flag-CD40L (AA 116 to 261) (human) (UniProt P29965); assay: competitive ELISA; receptor/Fc coated, sCD40L at constant concentration, competitor titrated with 1 ug/ml protein A
[3] = target: Flag-FasL (soluble FasL) (UniProt P48023); assay: BIAcore; Flag-FasL captured on immobilised M2 anti-Flag antibody, receptor fusion protein injected
UniProt P48023, sequence (P48023 other isoform, or with tags, fused parts or gaps): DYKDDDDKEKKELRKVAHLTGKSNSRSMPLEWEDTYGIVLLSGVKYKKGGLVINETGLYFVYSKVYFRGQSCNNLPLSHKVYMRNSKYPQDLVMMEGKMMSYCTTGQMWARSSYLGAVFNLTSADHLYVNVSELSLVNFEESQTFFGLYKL

[4] = target: Flag-FasL (soluble FasL) (UniProt P48023); assay: BIAcore; Flag-FasL captured on immobilised M2 anti-Flag antibody
[5] = target: Flag-FasL (soluble FasL) (UniProt P48023); assay: cell-based or functional assay
[6] = target: Flag-FasL (soluble FasL) (UniProt P48023); assay: BIAcore; 7 ul of 2.5 ug/ml Flag-FasL over immobilised M2 antibody
[7] = target: Flag-TRAIL (UniProt P50591); assay: BIAcore; 7 ul of 2.5 ug/ml Flag-TRAIL over immobilised M2 antibody

UniProt P29965, sequence (P29965 other isoform, or with tags, fused parts or gaps): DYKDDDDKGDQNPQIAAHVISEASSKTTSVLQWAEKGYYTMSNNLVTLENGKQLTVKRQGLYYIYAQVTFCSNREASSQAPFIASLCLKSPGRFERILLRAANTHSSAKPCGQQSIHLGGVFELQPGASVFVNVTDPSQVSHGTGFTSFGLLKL

Substance: Fas:COMP fusion protein (from UniProt P25445 26-170) (receptor)
Kd [3]: 0.77 nM | fold lower dissociation constant than Fas:Fc [4]: 8 to 9 fold | inhibitory activity against sFasL-mediated lysis, fold against Fas:Fc [5]: 10 to 20 fold

Substance: Fas:Fc fusion protein (from UniProt P25445 26-170)
protection of A20 cells exposed to a lethal dose of soluble FasL (cytotoxicity test) [5]: < 50%

Second part, the substance after the results:

fold increase in the affinity against CD40:Fc [1]: 30 fold
Substance: CD40:COMP fusion protein (from UniProt P25942 1-193) (receptor)

fold increase in the affinity against CD40:Fc [2]: 8 fold
Substance: CD40:Fc cross-linked with protein A (from UniProt P25942 1-193)

units bound (BIAcore) [6]: 100 to 150 units | units bound (BIAcore) [7]: 100 to 150 units
Substance: M2 anti-Flag monoclonal antibody
